Assays:
Assay type in all cases: cell-based, human
[1] = tested on: Firefly Luciferase driven by CMV/2B promoter in HEK293T cells; experiment: CMV/2B promoter repression by VPR-dCas9-N8 and gRNA_B, Luc assay (Example 12); settings: VPR-dCas9-N8 with gRNA_B vs scramble gRNA_AB
Protocol: Luciferase assay. The cells were collected 48 hours after transfection and lysed with 25 μL of 5×Passive Lysis Buffer ([…]) diluted in water. Firefly Luciferase and Renilla Luciferase expression were measured using the Dual Luciferase Assay (Promega) on a Glomax Explorer plate reader (Promega). Firefly Luciferase Arbitrary Units (fLuc [A.U.]) were calculated by normalizing each sample's Firefly Luciferase activity to the constitutive Renilla activity detected in the same sample. Relative fLuc [A.U.] values have been calculated by dividing each sample's Firefly Luciferase Arbitrary Units by the Firefly Luciferase Arbitrary Units of the sample with no Doxycycline induction, in the case of Doxycycline dose-response curves. In the case of Shield1 treatment, Relative fLuc [A.U.] values have been obtained by dividing each sample's Firefly Luciferase Arbitrary Units by the Firefly Luciferase Arbitrary Units of the sample treated with the maximum dose of Shield1 used, 1000 nM. Regarding experiments comprising Gaussia Luciferase and RedFireFly Luciferase, cells expressing those luciferases were harvested 48 h after transfection. Cells were disrupted with 100 μL/well of 1×Cell Lysis buffer and shaken for 15 min. Luciferase activity was measured using Pierce™ Gaussia-Firefly Luciferase Dual Assay Kit (ThermoFisher Scientific) according to the manufacturer's instructions. […]

[2] = tested on: Gaussia Luciferase (gLuc) transcripts in HEK293 cells; experiment: Mutual inhibition CasRx / gLuc transcripts with no, one or four DR (Example 13)
Protocol: In order to confirm the mechanism of inhibition mediated by the output species “Z” on the repressor species “Y” in genetic circuits according to preferred embodiments of the invention, HEK293 cells were co-transfected with CasRx endoribonuclease (species Y) and Gaussia Luciferase (gLuc) transcripts, the latter bearing in the 3′UTR either no Direct Repeat (DR), one DR, or four tandem DR motifs (4×DRs). The hypothesis tested was that upon CasRx binding, only one DR motifs would effectively contribute to transcript cleavage and subsequent degradation. Therefore, in transcripts bearing multiple DR motifs, the remaining DR motifs, not contributing to transcript cleavage, would act as decoys, sequestering active CasRx from the unbound pool. As a result, the CasRx repression efficacy on gLuc expression should decrease.
The luciferase emission of each sample was measured to quantify the expression of the gLuc at increasing amounts of co-transfected plasmid encoding the CasRx. […] (FIG. 25). Increasing the amount of DR copies in the 3′UTR thus enhances the “sponge” effect, inhibiting the cleavage efficacy of CasRx.

[3] = tested on: Gaussia luciferase transcript harboring a Direct Repeat in its 3′UTR, HEK293T cells; experiment: CasRx repression of Gaussia luciferase reporter with or without Direct Repeat (Example 2)
Protocol: Luciferase assay. The cells were collected 48 hours after transfection and lysed with 25 μL of 5×Passive Lysis Buffer ([…]) diluted in water. Firefly Luciferase and Renilla Luciferase expression were measured using the Dual Luciferase Assay (Promega) on a Glomax Explorer plate reader (Promega). Firefly Luciferase Arbitrary Units (fLuc [A.U.]) were calculated by normalizing each sample's Firefly Luciferase activity to the constitutive Renilla activity detected in the same sample. Relative fLuc [A.U.] values have been calculated by dividing each sample's Firefly Luciferase Arbitrary Units by the Firefly Luciferase Arbitrary Units of the sample with no Doxycycline induction, in the case of Doxycycline dose-response curves. […] Luciferase activity was measured using Pierce™ Gaussia-Firefly Luciferase Dual Assay Kit (ThermoFisher Scientific) according to the manufacturer's instructions.
The findings of Example 1 were further confirmed by transfecting HEK293T cells with an increasing molar ratio of a plasmid encoding a Gaussia luciferase reporter gene, with or without Direct Repeats in its 3′UTR and a plasmid encoding the CasRx endoribonuclease. […] At least, three biological replicates were analyzed for each condition. Relative gLuc A.U. is calculated as the ratio between the gLuc A.U. values obtained transfecting the CasRx against the one which wasn't; this last corresponds to 1 gLuc A.U.

[4] = tested on: mCherry expression in HEK293T cells; experiment: pCMV/TO repression by rtTA-VPR, mCherry positive cells by flow cytometry (Example 1); settings: presence of doxycycline (1000 ng/ml), rtTA-VPR co-transfected
Protocol: Flow Cytometry. Cells were collected 48 hours after transfection, washed and resuspended with PBS (Euroclone). Flow Cytometry analysis were carried out using an Accuri C6 (BD Biosciences), analyzing 10000 cells for each sample. A 488-nm laser with a 670 nm LP filter were used to excite and detect mCherry fluorescence.
HEK293T cells were transfected with a plasmid encoding the pCMV/TO promoter driving the expression of the fluorescent protein mCherry, and with a plasmid encoding the rtTA-VPR transcription factor driven by the strong constitutive pCMV promoter. A condition treated in the same way but without rtTA-VPR transfection was used as a negative control to account for any doxycycline treatment bias on mCherry expression. The percentage of mCherry positive cells was quantified through flow cytometry analysis in the absence and presence (1000 ng/ml) of doxycycline. The results of this experiment are shown in FIG. 3, where it can be appreciated that pCMV/TO efficiently represses the expression of the mCherry almost 25 times at the transcriptional level in the presence of doxycycline. pCMV/TO is efficiently repressed by the rtTA-VPR in the presence of doxycycline. Percentual mean values of at least three biological replicates are shown. Error bars indicate standard error.

B1: CMV/2B: CMV promoter with gRNA_B binding sites downstream of the TATA box, repressed by VPR-dCas9-N8, SEQ ID NO: 48 (nucleic acid)
DNA: CGTTACATAACTTACGGTAAATGGCCCGCCTGGCTGACCGCCCAACGACCCCCGCCCATTGACGTCAATAATGACGTATGTTCCCATAGTAACGCCAATAGGGACTTTCCATTGACGTCAATGGGTGGAGTATTTACGGTAAACTGCCCACTTGGCAGTACATCAAGTGTATCATATGCCAAGTACGCCCCCTATTGACGTCAATGACGGTAAATGGCCCGCCTGGCATTATGCCCAGTACATGACCTTATGGGACTTTCCTACTTGGCAGTACATCTACGTATTAGTCATCGCTATTACCATGGTGATGCGGTTTTGGCAGTACATCAATGGGCGTGGATAGCGGTTTGACTCACGGGGATTTCCAAGTCTCCACCCCATTGACGTCAATGGGAGTTTGTTTTGGCACCAAAATCAACGGGACTTTCCAAAATGTCGTAACAACTCCGCCCCATTGACGCAAATGGGCGGTAGGCGTGTACGGTGGGAGGTCTATATAAGCAGAGCTGCCGTCTTCCGTTTCCACATCTTCACGGATACCAAGGTGGCACCGGTTTGATTGCACAGCCCGTCTTCCGTTTCCACATCTTCACGG
percentage of repression of the CMV/2B [1]: around 60%

B2: CasRx: CRISPR-Cas RNase derived from Ruminococcus flavefaciens, SEQ ID NO: 2 (protein)
chain: IEKKKSFAKGMGVKSTLVSGSKVYMTTFAEGSDARLEKIVEGDSIRSVNEGEAFSAEMADKNAGYKIGNAKFSHPKGYAVVANNPLYTGPVQQDMLGLKETLEKRYFGESADGNDNICIQVIHNILDIEKILAEYITNAAYAVNNISGLDKDIIGFGKFSTVYTYDEFKDPEHHRAAFNNNDKLINAIKAQYDEFDNFLDNPRLGYFGQAFFSKEGRNYIINYGNECYDILALLSGLRHWVVHNNEEESRISRTWLYNLDKNLDNEYISTLNYLYDRITNELTNSFSKNSAANVNYIAETLGINPAEFAEQYFRFSIMKEQKNLGFNITKLREVMLDRKDMSEIRKNHKVFDSIRTKVYTMMDFVIYRYYIEEDAKVAAANKSLPDNEKSLSEKDIFVINLRGSFNDDQKDALYYDEANRIWRKLENIMHNIKEFRGNKTREYKKKDAPRLPRILPAGRDVSAFSKLMYALTMFLDGKEINDLLTTLINKFDNIQSFLKVMPLIGVNAKFVEEYAFFKDSAKIADELRLIKSFARMGEPIADARRAMYIDAIRILGTNLSYDELKALADTFSLDENGNKLKKGKHGMRNFIINNVISNKRFHYLIRYGDPAHLHEIAKNEAVVKFVLGRIADIQKKQGQNGKNQIDRYYETCIGKDKGKSVSEKVDALTKIITGMNYDQFDKKRSVIEDTGRENAEREKFKKIISLYLTVIYHILKNIVNINARYVIGFHCVERDAQLYKEKGYDINLKKLEEKGFSSVTKLCAGIDETAPDKRKDVEKEMAERAKESIDSLESANPKLYANYIKYSDEKKAEEFTRQINREKAKTALNAYLRNTKWNVIIREDLLRIDNKTCTLFRNKAVHLEVARYVHAYINDIAEVNSYFQLYHYIMQRIIMNERYEKSSGKVSEYFDAVNDEKKYNDRLLKLLCVPFGYCIPRFKNLSIEALFDRNEAAKFDKEKKKVSGNS
decrease of gLuc expression ([2]; transcript having one DR, increasing amount of co-transfected CasRx): ~2 log
luciferase values ([2]; transcript with 4×DRs, presence of CasRx): higher luciferase values in the presence of CasRx compared to a single DR
post-transcriptional inhibition of luciferase expression ([3]; 10 times molar excess of CasRx): ~200 folds
expression of Gaussia luciferase with DR in 3′UTR ([3]; equimolar amount of plasmid encoding CasRx, relative to no CasRx): 5%

B3: pCMV/TO: modified CMV promoter bearing two Tetracycline Operon (TO) sequences, SEQ ID NO: 8 (nucleic acid)
DNA: CGTTACATAACTTACGGTAAATGGCCCGCCTGGCTGACCGCCCAACGACCCCCGCCCATTGACGTCAATAATGACGTATGTTCCCATAGTAACGCCAATAGGGACTTTCCATTGACGTCAATGGGTGGAGTATTTACGGTAAACTGCCCACTTGGCAGTACATCAAGTGTATCATATGCCAAGTACGCCCCCTATTGACGTCAATGACGGTAAATGGCCCGCCTGGCATTATGCCCAGTACATGACCTTATGGGACTTTCCTACTTGGCAGTACATCTACGTATTAGTCATCGCTATTACCATGGTGATGCGGTTTTGGCAGTACATCAATGGGCGTGGATAGCGGTTTGACTCACGGGGATTTCCAAGTCTCCACCCCATTGACGTCAATGGGAGTTTGTTTTGGCACCAAAATCAACGGGACTTTCCAAAATGTCGTAACAACTCCGCCCCATTGACGCAAATGGGCGGTAGGCGTGTACGGTGGGAGGTCTATATAAGCAGAGCTCTCCCTATCAGTGATAGAGATCTCCCTATCAGTGATAGAGA
repression of mCherry expression [4]: ~25 times

Source: patent US20260022396A1, “GENETIC CIRCUITS” (FONDAZIONE TELETHON ETS, priority 2022, published 2026)
